Laboratory results taken from US20230159643A1 (H LUNDBECK A S, published 2023).
Blank lines part the entries; values can stand above or below the binder they belong to.

Experiments:
[1] = molecular target: T1, human wild type Sortilin on S18-HEK cells (human, UniProt Q99523 78-831); test: cell-based or functional assay
T1 sequence: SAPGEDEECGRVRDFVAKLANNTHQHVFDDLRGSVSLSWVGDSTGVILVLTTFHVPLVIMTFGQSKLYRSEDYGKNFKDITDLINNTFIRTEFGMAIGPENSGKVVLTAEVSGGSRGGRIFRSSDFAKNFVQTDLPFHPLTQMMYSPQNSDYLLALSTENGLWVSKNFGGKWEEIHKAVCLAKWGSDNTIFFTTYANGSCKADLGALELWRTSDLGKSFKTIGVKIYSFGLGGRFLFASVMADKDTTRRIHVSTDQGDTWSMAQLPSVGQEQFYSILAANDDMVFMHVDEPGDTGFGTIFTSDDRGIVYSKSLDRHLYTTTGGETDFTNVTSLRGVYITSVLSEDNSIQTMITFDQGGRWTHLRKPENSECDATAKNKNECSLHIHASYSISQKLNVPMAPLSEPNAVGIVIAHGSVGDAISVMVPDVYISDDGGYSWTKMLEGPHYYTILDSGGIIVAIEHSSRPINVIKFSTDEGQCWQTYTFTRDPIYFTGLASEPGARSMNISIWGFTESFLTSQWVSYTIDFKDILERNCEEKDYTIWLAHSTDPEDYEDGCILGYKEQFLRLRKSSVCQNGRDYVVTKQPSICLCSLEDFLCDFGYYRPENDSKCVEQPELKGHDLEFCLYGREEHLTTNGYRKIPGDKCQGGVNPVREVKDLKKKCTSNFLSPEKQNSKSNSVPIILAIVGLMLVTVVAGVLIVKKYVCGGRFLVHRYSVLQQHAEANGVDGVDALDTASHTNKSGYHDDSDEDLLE

[2] = molecular target: T2, Sortilin SORTECDBAP_hB01-05 (human/tetraodon chimera); test: BLI Octet 384RED (Example 8), Sortilin construct in solution
T2 construct: Shuffle construct
T2 chain: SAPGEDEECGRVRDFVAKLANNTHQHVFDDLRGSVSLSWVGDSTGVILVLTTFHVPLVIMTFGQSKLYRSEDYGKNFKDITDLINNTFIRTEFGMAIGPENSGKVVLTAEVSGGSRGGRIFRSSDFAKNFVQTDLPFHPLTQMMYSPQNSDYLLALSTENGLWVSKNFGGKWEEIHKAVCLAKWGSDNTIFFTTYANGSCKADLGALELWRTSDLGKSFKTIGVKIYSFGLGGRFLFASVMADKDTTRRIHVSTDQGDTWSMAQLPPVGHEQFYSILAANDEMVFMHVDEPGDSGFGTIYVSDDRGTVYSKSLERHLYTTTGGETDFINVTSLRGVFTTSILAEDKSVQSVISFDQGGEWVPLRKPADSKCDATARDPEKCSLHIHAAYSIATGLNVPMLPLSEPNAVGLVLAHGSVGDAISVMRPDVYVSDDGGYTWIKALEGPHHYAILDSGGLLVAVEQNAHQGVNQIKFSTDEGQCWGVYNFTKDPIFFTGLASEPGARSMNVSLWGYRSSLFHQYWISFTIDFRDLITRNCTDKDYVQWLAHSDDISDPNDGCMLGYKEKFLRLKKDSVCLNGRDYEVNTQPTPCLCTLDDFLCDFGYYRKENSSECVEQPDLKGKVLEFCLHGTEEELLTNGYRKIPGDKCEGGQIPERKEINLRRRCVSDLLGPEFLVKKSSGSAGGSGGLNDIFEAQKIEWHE
Procedure: (§1) Binding kinetics of anti-Sortilin HuMab antibodies to Sortilin were determined using Octet 384RED (Fortebio, Menlo Park, USA). HuMab solutions of 2 μg/ml were made by dilution in sample diluent (ForteBio, art. No. 18-5028). Prot A sensors (ForteBio, art. no. 18-0004) were prewetted with kinetics buffer (1:10 sample diluent in PBS) for at least 600 seconds. Subsequently sensors were immobilized with HuMab solution for 600 seconds. A baseline response was obtained by dipping in kinetics buffer for 120 seconds. Association of SORTECD constructs was performed during a 1000 seconds incubation. This was followed by dissociation in kinetics buffer for 100 seconds. After dissociation, sensors were regenerated (10 mM Glycine pH 1.0) and neutralized (kinetics buffer) 3 times for 5 seconds. […] A molecular weight of 76.8 kDA was used for SORTECDHis. Data was fitted with ForteBio Analysis 6.4 software, using a global full fit.

[3] = molecular target: T3, Sortilin SORTECDBAP_tetra (tetraodon); test: as above
T3 construct: Fully tetraodon Sortilin ECD with BAP tag; also called tetraodon Sortilin
T3 chain: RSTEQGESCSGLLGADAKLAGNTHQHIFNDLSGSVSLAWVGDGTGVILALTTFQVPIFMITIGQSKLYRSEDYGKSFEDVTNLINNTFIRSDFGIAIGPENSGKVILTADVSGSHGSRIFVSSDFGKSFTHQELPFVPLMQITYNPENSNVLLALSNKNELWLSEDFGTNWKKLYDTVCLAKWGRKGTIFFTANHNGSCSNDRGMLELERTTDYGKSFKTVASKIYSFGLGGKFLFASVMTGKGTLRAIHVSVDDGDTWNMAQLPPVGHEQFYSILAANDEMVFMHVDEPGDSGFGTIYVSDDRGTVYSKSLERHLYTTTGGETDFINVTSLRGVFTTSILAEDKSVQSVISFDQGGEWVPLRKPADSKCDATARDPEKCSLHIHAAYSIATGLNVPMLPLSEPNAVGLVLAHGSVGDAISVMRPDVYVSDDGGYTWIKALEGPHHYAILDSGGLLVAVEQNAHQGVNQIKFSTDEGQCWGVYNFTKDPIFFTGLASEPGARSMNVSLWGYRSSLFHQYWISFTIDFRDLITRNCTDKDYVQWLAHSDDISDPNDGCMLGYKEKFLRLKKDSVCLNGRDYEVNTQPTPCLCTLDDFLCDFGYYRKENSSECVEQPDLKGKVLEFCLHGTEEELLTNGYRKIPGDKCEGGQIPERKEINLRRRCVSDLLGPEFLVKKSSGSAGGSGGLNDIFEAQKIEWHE
Procedure: as §1

extracellular PGRN in medium of Sortilin over-expressing HEK cells (ELISA), % of untreated control [1]: 282% | binding result [2]: no binding (tested: 10 µg/ml construct) | binding result [3]: no binding (tested: 10 µg/ml construct)
B1: Antibody 1F2 (antibody, V domains shown)
VH: EVQLVESGGDLVKPGGSLKLSCAASGFTFSSYGMSWVRQTPDKRLEWVAIISSGGSYTHYPDSVKGRFTISRDNAKNTLYLQMSSLKSEDTAMYYCARLCGPLCSGYWGQGTSVTVSS
VL: QAVVTQESALTTSPGETVTLTCRSSTGAVTTSNYANWVQEKPDHLFTGLIGGTNNRAPGVPARFSGSLIGDKAALTITGAQTEDEAIYFCALWYSNHFWVFGGGTKLTVLG
notes: Mouse anti-human Sortilin monoclonal antibody from hybridoma (BALB/c), purified on protein G; Assigned to the D Region; also called 1F2F4; Ab 1F2

extracellular PGRN in medium of Sortilin over-expressing HEK cells (ELISA), % of untreated control [1]: 114%
B2: 1320 (antibody, V domains shown)
VH: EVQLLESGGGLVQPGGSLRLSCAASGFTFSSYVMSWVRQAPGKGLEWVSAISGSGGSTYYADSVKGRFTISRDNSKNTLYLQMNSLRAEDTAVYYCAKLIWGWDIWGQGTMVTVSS
VL: EIVLTQSPATLSLSPGERATLSCRASQSVSSYLAWYQQRPGQAPRLLIYDASNRATGIPARFSGSGSGTDFTLSISSLEPEDFAVYYCQQRTNWSITFGQGTRLEIK
notes: also called IgG1-6003-1320; Antibody 1320

extracellular PGRN in medium of Sortilin over-expressing HEK cells (ELISA), % of untreated control [1]: 177% | binding result [2]: no binding (tested: 10 µg/ml construct) | binding result [3]: no binding (tested: 10 µg/ml construct)
B3: Antibody 5E1 (antibody, V domains shown)
VH: EVHLVESGGDLVNPGGSLKLSCEASGFIFSIYGMSWVRQTPDKRLEWVAMISSGGIYTQYPDSVKGRFTISRDNAKNTLYLQMSGLKSEDTGTYHCTRHDDSWFAYWGQGTLVTVSA
VL: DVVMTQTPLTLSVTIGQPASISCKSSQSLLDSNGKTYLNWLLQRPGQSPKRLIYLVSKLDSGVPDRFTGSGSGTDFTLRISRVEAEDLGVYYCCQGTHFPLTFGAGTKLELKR
notes: Mouse anti-human Sortilin monoclonal antibody from hybridoma (BALB/c), purified on protein G; Assigned to the D Region; also called 5E1F6; Ab 5E1
